Where two headings read alike, the source gives them in different places.

In this assay the target is ADCY9.1 DNA target. Briefly: In vitro binding assay, fluorescence anisotropy of fluorescein-labeled ADCY9.1 duplex. The procedure: FIG. 12: Spectrofluorimetric titration of fluorescein-labeled ADCY9.1 by ADCY9. 50 nM of ADCY9.1 duplex was incubated with increasing concentrations of ADCY9 (from 0 to 1.5 μM) in binding buffer (10 mM Tris-HCl, 150 mM NaCl, 10 mM CaCl2, 10 mM DTT, pH8) at 25° C. After 30 minutes incubation, the fluorescence anisotropy of the mixture was recorded with a Pherastar Plus (BMG Labtech) operating in fluorescence polarization end point mode with excitation and emission wavelengths set to 495 and 520 nm respectively. Normalized fluorescence anisotropy is plotted as a function of ADCY9 concentration. Apparent dissociation constant were determined by fitting raw data by an hyperbolic function (Ax=(A∞*[Meganuclease])/(Kd+[Meganuclease]) with Ax, the fluorescence anisotropy value obtained at a given meganuclease concentration, A∞ the fluorescence anisotropy value obtained at saturating concentration of meganuclease and Kd the dissociation constant of the equilibrium studied).
Fluorescein labeled C1234 oligonucleotides were synthesized and HPLC-purified by Eurogentec. […] C 1234 duplex and fluorescein final concentrations were assessed by spectrophotometry using their respective extinction coefficients ε260nm=62900 M^−1 cm^−1 and ε495nm=83000 M^−1 cm^−1. […]

B1: ADCY9: engineered meganuclease (SEQ ID NO: 3) designed to cleave adenylate cyclase 9 gene (protein)
chain: MANTKYNEEFLLYLAGFVDGDGSIIAQIKPNQSYKFKHQLSLTFRVTQKTQRRWFLDKLVDEIGVGYVRDSGSVSNYDLSEIKPLHNFLTQLQPFLELKQKQANLVLKIIEQLPSAKESPDKFLEVCTWVDQVAALNDSKTRKTTSETVRAVLDSLSEKKKSSPAAGGSDKYNQALSKYNQALSKYNQALSGGGGSNKKFLLYLAGFVDSDGSIIAQIKPDQSYKFKHQLGLTFQVTQKTQRRWFLDKLVDRIGVGYVRDRGSVSDYILSEIKPLHNFLTQLQPFLKLKQKQANLVLKIIEQLPSAKESPDKFLEVCTWVDQVAALNDSKTRKTTSETVRAVLDSLSEKKKSSP
Turning to B1, the Kd by setting is: (ADCY9.1_Me −3a/−2b (fully methylated), sigmoidal pattern, read-out: Kd (apparent)) 431 ± 30 nM; (unmethylated ADCY9.1, read-out: Kd) 190 ± 19 nM.

Values taken from US20130196320A1, “METHOD FOR IMPROVING CLEAVAGE OF DNA BY ENDONUCLEASE SENSITIVE TO METHYLATION” (CELLECTIS, priority 2010, published 2013).
